Results on 7 molecules are retold here after patent EP3964526A1 (Novartis AG, dated 2022).

Changes are numbered by the printed parent chain.

For assay [1], the target named is T1, recombinant human VEGF165 (PeproTech EC Ltd.) (human, UniProt P15692-4 27-191).
T1 construct: Amine-coupled to a CM4 sensor chip; also called hVEGF165
Nature of the assay: SPR BIAcore T100, hVEGF165 amine-coupled on CM4 chip, scFv as analyte. (In SPR one partner is held on a chip, and binding of the other changes the refractive index at the surface.)

In assay [2] the target is VEGF (as used in the VEGFR competition ELISA). Nature of the assay: competition ELISA against hVEGR1, EC50 ratio to reference Luc. In general terms: An ELISA detects its analyte on a solid surface through an enzyme-linked reagent.
Sequence of VEGF (as used in the VEGFR competition ELISA) (P15692 whole entry): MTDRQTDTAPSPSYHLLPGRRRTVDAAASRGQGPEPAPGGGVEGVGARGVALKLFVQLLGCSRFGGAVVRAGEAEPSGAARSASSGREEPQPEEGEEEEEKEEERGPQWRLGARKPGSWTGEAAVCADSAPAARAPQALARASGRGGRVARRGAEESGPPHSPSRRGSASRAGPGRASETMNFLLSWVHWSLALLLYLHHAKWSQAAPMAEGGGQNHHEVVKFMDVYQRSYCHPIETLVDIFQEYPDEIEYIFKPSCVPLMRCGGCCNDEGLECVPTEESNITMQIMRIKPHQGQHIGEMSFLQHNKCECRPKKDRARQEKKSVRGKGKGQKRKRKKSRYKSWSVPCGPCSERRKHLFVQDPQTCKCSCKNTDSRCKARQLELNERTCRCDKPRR
Assay [3] has the same target. In words: competition ELISA against hVEGR1, EC50 ratio to reference Luc; first of two values in the cell.
Assay [4] has the same target. In words: competition ELISA against hVEGR1, EC50 ratio to reference Luc; second of two values in the cell.

T1 sequence (P15692 other isoform, or with tags, fused parts or gaps limits assumed): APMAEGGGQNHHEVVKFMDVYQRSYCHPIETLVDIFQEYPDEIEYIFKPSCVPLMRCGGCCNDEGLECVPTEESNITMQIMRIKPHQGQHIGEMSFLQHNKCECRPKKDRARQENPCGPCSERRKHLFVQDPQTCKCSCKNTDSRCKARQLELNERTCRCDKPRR

B1: 567-min (scFv)
chain: EIVMTQSPSTLSASVGDRVIITCQADQSIYIWLSWYQQKPGKAPKLLIYKASTLESGVPSRFSGSGSGAEFTLTISSLQPDDFATYYCQNNAHYSTNGGTFGQGTKLTVLGGGGGSGGGGSGGGGSGGGGSEVQLVESGGGLVQPGGSLRLSCAASGFSLSDYYMCWVRQAPGKGLEWVSCLDYFGSTDDASWAKGRFTISRDNSKNTLYLQMNSLRAEDTAVYYCAKTDDSRGWGLNIWGQGTLVTVSS
For orientation: Kd means the equilibrium constant for the complex coming apart. Usually koff stands for the first-order rate constant of dissociation. By kon is commonly meant the second-order rate constant of association. B1: in assay [1], the Kd is 0.23 nM, the koff stood at 0.000461 s⁻¹ and the kon was 2.01e+06 M⁻¹ s⁻¹. For the same molecule, the “Rel. activity hVEGR1 comp. ELISA (EC50Luc[nM]/EC50test[nM])” value (from here on “Rel. activity hVEGR1 comp. ELISA”) in assay [2] was 57 ratio.

B2: 509-min (scFv)
chain: B1 chain with D26S, S28N, Y30R, D162S, F185V, S187D, D190Y
Turning to B2, in assay [1], the Kd was found to be 1.82 nM, the koff stood at 0.00114 s⁻¹ and the kon was determined as 623000 M⁻¹ s⁻¹. For the same molecule, in assay [2], the “Rel. activity hVEGR1 comp. ELISA” value was found to be 2.9 ratio.

B3: 567-max (scFv)
chain: B1 chain with A69T, E70Q, A154S, A155V, S180G, R202K, N204T, L209V, K228R
With B3, the “Rel. activity hVEGR1 comp. ELISA” value in assay [3] amounted to 15.7 ratio. Also, in assay [1], the Kd amounted to 0.188 nM, the koff worked out at 0.000226 s⁻¹ and the kon amounted to 1.2e+06 M⁻¹ s⁻¹. In addition, the “Rel. activity hVEGR1 comp. ELISA” value in assay [4] turned out to be 54.5 ratio.

B4: 511-max (scFv)
chain: EIVMTQSPSTLSASVGDRVIITCQASQSINIWLSWYQQKPGKAPKLLIYRASTLASGVPSRFSGSGSGTEFTLTISSLQPDDFATYYCQANYAYSAGYGAAFGQGTKLTVLGGGGGSGGGGSGGGGSGGGGSEVQLVESGGGLVQPGGSLRLSCTVSGFSLNTYYMNWVRQAPGKGLEWVGIIAPDDTTYYASWAKSRSTISRDTSKNTVYLQMNSLRAEDTAVYYCARSGDTTAWGADIWGQGTLVTVSS
For B4, in assay [1], the Kd worked out at 0.0667 nM, the koff was determined as 4.4e-05 s⁻¹ and the kon was determined as 659000 M⁻¹ s⁻¹. Also, in assay [2], the “Rel. activity hVEGR1 comp. ELISA” value was determined as 8 ratio.

B5: 578-min (scFv)
chain: EIVMTQSPSTLSASVGDRVIITCQASEIIHSWLAWYQQKPGKAPKLLIYLASTLASGVPSRFSGSGSGAEFTLTISSLQPDDFATYYCQNVYLASTNGANFGQGTKLTVLGGGGGSGGGGSGGGGSGGGGSEVQLVESGGGLVQPGGSLRLSCAASGFSLTDYYYMTWVRQAPGKGLEWVSFIDPDDDPYYATWAKGRFTISRDNSKNTLYLQMNSLRAEDTAVYYCAKGDHNSGWGLDIWGQGTLVTVSS
Take B5: in assay [1], the Kd is 9.01 nM, the koff stood at 0.0103 s⁻¹ and the kon amounted to 1.14e+06 M⁻¹ s⁻¹. The “Rel. activity hVEGR1 comp. ELISA” value in assay [2] is 4.8 ratio.

B6: 578-max (scFv)
chain: B5 chain with A69T, E70Q, A154T, S181G, N205T, L210V, K229G
Take B6: the “Rel. activity hVEGR1 comp. ELISA” value in assay [3] worked out at 35.5 ratio. In assay [1], the Kd is 0.439 nM, the koff is 0.000307 s⁻¹ and the kon was found to be 700000 M⁻¹ s⁻¹. The “Rel. activity hVEGR1 comp. ELISA” value in assay [4] is 51.6 ratio.

B7: 511-min (scFv, V domains shown)
VH: EVQLVESGGGLVQPGGSLRLSCAASGFSLNTYYMNWVRQAPGKGLEWVSIIAPDDTTYYASWAKSRFTISRDNSKNTLYLQMNSLRAEDTAVYYCAKSGDTTAWGADIWGQGTLVTVSS
VL: EIVMTQSPSTLSASVGDRVIITCQASQSINIWCSWYQQKPGKAPKLLIYRASTLASGVPSRFSGSGSGAEFTLTISSLQPDDFATYYCQANYAYSAGYGAAFGQGTKLTVL
With B7, in assay [1], the Kd is 2.53 nM, the koff is 0.00128 s⁻¹ and the kon is 505000 M⁻¹ s⁻¹. Besides, the “Rel. activity hVEGR1 comp. ELISA” value in assay [2] worked out at 0.7 ratio.
